Assays:
[1] = molecular target: fusion protein hPD1-HSA composed of a PD1 extracellular domain sequence and a human serum albumin sequence (human); experiment: competitive ELISA, hPD1-HSA coated; competitor bio-hPDL1-FC, HRP-Streptavidin
[2] = molecular target: fusion protein hPD1-HSA composed of a PD1 extracellular domain sequence and a human serum albumin sequence (human); experiment: ELISA, hPD1-HSA coated 200 ng/well, HRP anti-human IgG Fc

IC50 [1]: 1.72 nM
EC50 [2]: 0.181 nM
Substance: Keytruda ® (antibody)

Source: patent US20240092908A1
